Source: the DeepSol protein solubility set

Test: soluble on expression in E. coli; label from the status in PepcDB or PDB records
With “MGHHHHHHSHVLPIYAYGHAVGKSVTGGYVYRGCESPNLNGLYIFGDFMSGRLMALQEDRKNKKWKKQDLCLGSTTSCAFPGLISTHSKFIISFAEDEAGELYFLATSYPSAYAPRGSIYKFVDPSRRAPPGKCKYKPVPVRTKSKRIPFRPLAKTVLDLLKEQSEKAARKSSSATLASGPAQGLSEKGSSKKLASPTSSKNTLRGPGTKKKARVGPHVRQGKRRKSLKSHSGRMRPSAEQKRAGRSLP” the “soluble on expression in E. coli” value was “not soluble”. In the case of “MGHVVKVALLGLGEVGEKFAEHFLEKIQEDRANVEIVAVAHRDLESPVALGFVHSKVPVFKDAMEVVTLGAKVDIIFDLTGDPEVRRKLRIALQESHNQHTVIAPEVVAHLLWNFFGEGELPRSNRTGY”, the “soluble on expression in E. coli” value is reported as “soluble”. With “MGISDNDVQKQLRHMMAFIEQEANEKAEEIDAKAEEEFNIEKGRLVQQQRQKIMEFFEKKEKQVELQRKIQASNSLNAGRLRCLKAREDHIGAVLDEARSNLSRISGDAARYPAILKGLVMQGLLQLLEKEVVLRCREKDLRLVEQLLPECLDGLQKEWGSTTKVVLDKQNFLPSESAGGVELSARAGKIKVSSTLESRLELIANQIVPQVRTALFGPNPNRSFFD” the “soluble on expression in E. coli” value was “not soluble”. For “MGISRDSWHKRYKTGATQPVPHKKRKFELGRPAANTKIGAHRVRLVRTRGGNEKYRALRLDSGNFSWASEQTTRKTRIVDTMYNATNNELVRTKTLVKGAIISVDAAPFRQWYEAHYALPLARKKNAKLSEEDNAILNKKRSHHTMKKYTERQKTAAVDALLIEQFNTGRLLARISSSPGQVGQANGYILEGKELDFYLRKIRAKKAK”, the “soluble on expression in E. coli” value was “not soluble”. For “MGITREELRALVREVVREAVGSLNSSPAQASNQASKPAPPAPPPRATVADQMGLEPTGPRAVEGRNRTETVRLTDDKDLDTFVRKLLRLFESPKTRADLKAGRLRFRLAPGSGAAMANGQAQVTHRIDSGAVTERHIADLAGGTLVLGPRAVLTPLAREKARTLGIVIEKERR”, the “soluble on expression in E. coli” value was “not soluble”. With “MGKATYTVTVTNNSNGVSVDYETETPMTLLVPEVAAEVIKDLVNTVRSYDTENEHDVCGW” the “soluble on expression in E. coli” value was “soluble”. With “MGKEVMGKKENEMAQEKERPAGSQSLFRGLMLIEILSNYPNGCPLAHLSELAGLNKSTVHRLLQGLQSCGYVTTAPAAGSYRLTTKFIAVGQKALSSLNIIHIAAPHLEALNIATGETINFSSREDDHAILIYKLEPTTGMLRTRAYIGQHMPLYCSAMGKIYMAFGHPDYVKSYWESHQHEIQPLTRNTITELPAMFDELAHIRESGAAMDREENELGVSCIAVPVFDIHGRVPYAVSISLSTSRLKQVGEKNLLKPLRETAQAISNELGFTVRDDLGAIT” the “soluble on expression in E. coli” value was “soluble”. For “MGKIFCIVQARMGSERLQGKVIKPILKKPMVIYTLDRLKKSKYIDKIVLATSSMERETPLVESCEEYGYDVFKGSEANVLKRYEQAAEKYGANIEDAVIRVTGDCPLIDPIIVDNVVTKFLSSDYDYVRLDVPNTFVRGFDVEIFSMKALKTVNSLINGGKIPKEEADMYKEHVTLYMYKHPNEFKVGYVKGDEFYSKDYRLCVDTKEDFELVKNIYEHFNDEFVSSKNVINYLDRNSEIAQINNDIKQKEVLEHHHHHH”, the “soluble on expression in E. coli” value was “soluble”. In the case of “MGKKIITISREYGSGGRQVGLTVAKKLGMEFYDKELIDAAAKEIGFPTEMIADREQRLTNSLLYNFAMGTLYGIAYPREPKVSELPLTEQIYQAQKKAIEEAAKRGSCIFVGRCADYILKSRPDVLRVFIYADRDIRKRRAIEEYGEIEEYIDEFMYQTDKRRRIHYENYTNQKWGSRENYDLMLNSGDLGLDKCVELLCEAVK”, the “soluble on expression in E. coli” value is reported as “not soluble”. With “MGKRMVVVGGVAGGASAAAKAKRENPELEVVVYEKSGWVSYGACGLPYVLSGEIPRLERLVARTPEEFRKQGVLVRTRHEVVDVDYELRTLTVHDHAEGRTFQDRFDHLVLATGARPSLPPIPGTEQEGVYTLRTMEDGERLLKALPQARRAAILGAGYIGLEAAEAFRKRGLQVTLLEAKDRPLPHWDPEVGALLKEELERHGVEVWTGVKVEAFRGMGRVEAVETSEGVVPADLVLLATGIRPNTELAQAMGVALGPTGAIATDERMRTNLEGVYAAGDVAESFHRVLKRPYWLPLGDVANKHGRTAGSVIAGREARFLGVVGTAIFKAFDLAVATTGLSLEGALKEGFWAKKVFIQSRDGAHYYPGSGPLWVELVYEEGTGRLLGGAVVARGHGALRIDVLAALLHREGSVEDLLALDLAYAPPFSPVWDPLLIAAQQAR” the “soluble on expression in E. coli” value was “soluble”. For “MGKTLYEKVYDAHVAVAAEGETPILYIDRHLVHEVTSPQAFDGLREKGRKVRQVSKTFATMDHNVSTTTKDINASGEMARIQMETLSKNCEEFGVTLYDLNHKYQGIVHVMGPELGITLPGMTIVCGDSHTATHGAFGSLAFGIGTSEVEHVLATQTLKQARAKT”, the “soluble on expression in E. coli” value was “not soluble”. With “MGKWRYLAIGVCLMTTSGVTFADSLDAQRQRYQQVKLAWDSNQMDTVAQLMPTLRDYPLYPYLEYRQLTQDLSQVSTAQVKDFLNRHPTLPPAKSLPSRFVNELARREDWRGLLTFSPTAPKPVAARCNYYYAKWATGEQSVAWEGASEIWLNGQSLPGSCDKLFSVWQQAGHQTPLATLARMKLALKEGNASLVSYLLKQLPADYQTMGTALAKLQSDPSSVESFARTVGPTDFTRSATTIAFTRLARQDVENARLMIPSLVRLQKMSDSEKLELEEAVAWRLMGNDATYEQAKWRDQVALRSHSTSLLERRIRMSLGSGDRQGLATWLARLPAEAQDKDEWRYWRASLLLEQGKKAEGEAILRSLTKERGFYPMVAAQKLNIPYPIKVQVAAKPDVSLAQRPEIARVRELMYWNMDNQARAEWSYLVASRSKAEQEALARYAFDQKWADLSVQATIVAKLWDHLEERFPMAWTKEFRQFTEDKGITPSYAMAIARQESAWNPKAQSPVGATGLMQVMPRTAEHTVKRNNIAGYLNSSQLLDPVTNIEIGTYYLEEVYQQFGRNRILSSAAYNAGPSRVNTWLGNSGGQVDAVAFIESIPFSETRGYVKNVLAYDAFYRHFMNRPAKVLSDAEWQRRY” the “soluble on expression in E. coli” value was “soluble”. In the case of “MGLIEDKALVEAALFVAGRPLSLKELSKALGIKSLDYLEKLIELIASEYAERKSAIEIVKVAGDKWVMQVKQEYSQRVIPLMPKPELSTGELKTLALIAYLQPVEQSKIVKLRGSQAYEHIRKLLEMGLIYAEPYERTRLLGTTEKFAELYGFPENDPMLIKETFKKVIHAEYSDLMKKIEESEKKKE”, the “soluble on expression in E. coli” value is reported as “soluble”. For “MGLKDWIEAPAAAVVPAKRSKLNWLRGAAARLTTPLLPDDYLHLANPLWSARELRGQIVEVRAETADSATIVIKPGWGFDFDYEPGQYIGIGLHIDGRWHWRSYSLTSPPNWDDKLISIAVKAMPEGFLSSHLVNGVPSGTIVRLATPTGNFALPDPPPERILFLTAGSGITPVMAMLRTMNRRGQLPDVFHVHSAPTDADVMFADELTQLHEEHDDFRCKIQLTRSQGKFALSSLDEVCPDWRERQTWACGPLPMLDEIETLWRDEGIENKLHLERFAVSRADTSGEGGTVTFAKADKTVSVDGATTLLEAGEQVGALMPFGCRMGICQTCVVPILAGHAIDLRSGKQHAEGDRVQTCISAAAGDCTLDA”, the “soluble on expression in E. coli” value was “not soluble”. With “MGLSPSAPAVAVQASNASASPPSGCPMHEGKMKGCPVNTEPSGPTCEKKTYSVPAHQERAYEYVECPIRGTAAENKENLDPSNLMPPPNQTPAPDQPFALSTVREESSIPRADSEKKWVYPSEQMFWNAMLKKGWKWKDEDISQKDMYNIIRIHNQNNEQAWKEILKWEALHAAECPCGPSLIRFGGKAKEYSPRARIRSWMGYELPFDRHDWIINRCGTEVRYVIDYYDGGEVNKDYQFTILDVRPALDSLSAVWDRMKVAWWRWTS” the “soluble on expression in E. coli” value was “soluble”. In the case of “MGLVGLHSGTIDMEFIGVEDHGDEEGKQIAVSVISSGKNADKTEDPDSLIFTGFGGTDMYHGQPCNQKLERLNIPLEAAFRKKSIVRVVRCMKDEKRTNGNIYIYDGTYMITNRWEEEGQNGFIVFKFKLVREPDQKPAFGIWKSIQNWRNGLSIRPGLILEDLSNGAENLKVCLVNEVDKENGPALFRYVTSLIHEVINNIPSMVDRCACGRRSCGSKHVFREKLSVSSSLVISAKKSGNVARFMNHSCSPNVFWQSIAREQNGLWCLYIGFFAMKHIPPLTELRYDYGKSRGGGKKMCLCRTKKCCGSFG”, the “soluble on expression in E. coli” value is reported as “soluble”. With “MGLVTDEVRARAEKYTGDEICREKTKEFLKEVSMPNGLLPLKDIEEVGYDRETGIVWLKQKKSITHKFEAIGKLVSYATEVIAQVEVGKIKKLTGVKAKELLIWVTLNELVLEQPTSSGKINFRTPTGLSRTFPVSAFVVPEVEKPATEKNNGTTEVKEAVAVTDA” the “soluble on expression in E. coli” value was “not soluble”.
